Substrate in data set [1]: N[C@@H](Cc1ccc(O)c(O)c1)C(=O)O
Kind of data set: purified protein. Format: biochemical, Juglans regia. Particulars: 50 mM sodium phosphate pH 6.5, five substrate concentrations 0.29-1.96 mM.

Substrate in data set [2]: N[C@@H](Cc1ccc(O)cc1)C(=O)O
Kind of data set: purified protein. Format: biochemical, Juglans regia. The following applies: 50 mM sodium phosphate pH 6.5, five substrate concentrations 0.29-1.96 mM.

Results on 1 protein are retold here after PMC3989047, “Purification and characterization of tyrosinase from walnut leaves (Juglans regia)” (Phytochemistry, 2014).

B1: jrPPO1(Asp101 → Arg445), Juglans regia tyrosinase (form 2) (Juglans regia) (protein)
chain: DPVSAPELTLCSEADLPAGALPVNCCPPTSKKIKDFVLPSQNTPLRVRPAAHLVDNDYIAKYNKGIELMKSLPADDPRSFTQQANVHCAYCDGAYTQVGFPDLSLQVHECWLFFPFHRYYVYFFEKILGKLIGDPTFALPFWNWDSPPGMQLPSLYAVSNSAIYDPLRNANHQPPTIIDLDYGETSESTTTTDQVPSNLKIMYRQMVSGAKNPTLFFGSPYRAGDEPDPGAGTIESTPHNNIHLWTGDDTQPNIENMGNFYSAGRDPIFFAHHSNVDRMWTIWKTLGGKRKDITDPDWLNSSFFFYDENADPVRVKVKDCVDNTKLRYVYQDVEIPWLKTKPTPR
notes: native, purified from walnut leaves; 39,047 Da
In general, Km refers to the concentration of substrate that gives half-maximal velocity. A word on the Vmax: it is the rate approached at saturating substrate. Usually kcat stands for the maximal rate divided by the concentration of active sites. As usually defined, the kcat/Km is the turnover number divided by the Michaelis constant. Regarding B1, in “purified protein [1]”, the Km is given as 8.8 mM, the Vmax was determined as 60 µM/min, the Vmax/Km is 0.01 min⁻¹ and the kcat was determined as 199 s⁻¹. Besides, in “purified protein [1]”, the kcat/Km is 22800 M⁻¹ s⁻¹. Besides, in the data set “purified protein [2]”, the Km turned out to be 1.9 mM, the Vmax was found to be 80 µM/min, the Vmax/Km came to 0.04 min⁻¹ and the kcat came to 20.8 s⁻¹. Moreover, the specificity constant (kcat/Km) in “purified protein [2]” was found to be 10900 M⁻¹ s⁻¹.
